Values of other authors in publication PMC6116012.
pKd: −log10 of the molar value.

What was measured:
FEN1 (Homo sapiens) = FEN1 (Homo sapiens) (UniProt P39748)
PAF15 (Homo sapiens) = PAF15 (Homo sapiens) (UniProt Q15004)
[1] = target: PAF15 extended PIP-box peptide PIP-box (Homo sapiens) (UniProt Q15004)

Sequence of UniProt P39748 (P39748 whole entry): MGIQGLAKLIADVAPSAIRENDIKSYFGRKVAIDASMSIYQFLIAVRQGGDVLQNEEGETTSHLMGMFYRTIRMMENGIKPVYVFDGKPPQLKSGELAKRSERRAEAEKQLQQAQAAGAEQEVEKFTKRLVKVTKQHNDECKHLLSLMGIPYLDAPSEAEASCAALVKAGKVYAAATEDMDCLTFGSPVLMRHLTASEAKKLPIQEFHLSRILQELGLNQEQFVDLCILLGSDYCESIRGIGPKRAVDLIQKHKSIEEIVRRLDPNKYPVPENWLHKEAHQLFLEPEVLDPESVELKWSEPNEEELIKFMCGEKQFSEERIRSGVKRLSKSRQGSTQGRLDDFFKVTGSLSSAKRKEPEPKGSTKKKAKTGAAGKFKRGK

PCNA (from UniProt P12004)
pKd (FEN1 (Homo sapiens)): 7.22 | pKd (PAF15 (Homo sapiens)): 5.96 | pKd [1]: 5.25
